Data published in the supplement of paper PMC7125110.
± gives the standard error. For part of these data: Variants at the floor of the assay were thinned out.

B1: glmS ribozyme (parent)
chain: AUAAAAGCGCCAGAACUACAGAAAUGUAGUUGACGAGGAGGAGGUUUAUCGAAUUUUCGGCGGAUGCCUCCAAA

Experiments:
Conditions in all cases: with glucosamine-6-phosphate
glucosamine-6-phosphate [1] = variants of: B1; assay: kcat; higher = faster cleavage; RNA array
Summary of the method: (§1)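 Barcoded ribozyme variants on sequenced MiSeq chips were transcribed in situ by E. coli RNA polymerase and followed at 37 °C through a hybridised Cy3 probe. Glucosamine-6-phosphate at 40 μM to 10 mM in HEPES/KCl/Mg(OAc)2 buffer was flowed in, and tiles were imaged over ~14 h. Signals were normalised to baseline and to non-cleaving reference variants, and per-tile medians were fit to one- or two-exponential decays to give kobs. Weighted Michaelis–Menten fits across concentrations gave kcat and KM.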

glucosamine-6-phosphate [2] = variants of: B1; assay: self-cleavage kobs at 40 uM GlcN6P; higher = faster cleavage; RNA array
Summary of the method: as §1

glucosamine-6-phosphate [3] = variants of: B1; assay: KM; higher = weaker cofactor use; RNA array
Summary of the method: as §1

glucosamine-6-phosphate [4] = variants of: B1; assay: self-cleavage kobs at 160 uM GlcN6P; higher = faster cleavage; RNA array
Summary of the method: as §1

glucosamine-6-phosphate [5] = variants of: B1; assay: self-cleavage kobs at 640 uM GlcN6P; higher = faster cleavage; RNA array
Summary of the method: as §1

glucosamine-6-phosphate [6] = variants of: B1; assay: self-cleavage kobs at 2500 uM GlcN6P; higher = faster cleavage; RNA array
Summary of the method: as §1

glucosamine-6-phosphate [7] = variants of: B1; assay: self-cleavage kobs at 10000 uM GlcN6P; higher = faster cleavage; RNA array
Summary of the method: as §1

Variant	kcat (glucosamine-6-phosphate [1]) [s⁻¹]	self-cleavage kobs at 40 uM GlcN6P (glucosamine-6-phosphate [2]) [s⁻¹]	KM (glucosamine-6-phosphate [3]) [µM]	self-cleavage kobs at 160 uM GlcN6P (glucosamine-6-phosphate [4]) [s⁻¹]	self-cleavage kobs at 640 uM GlcN6P (glucosamine-6-phosphate [5]) [s⁻¹]	self-cleavage kobs at 2500 uM GlcN6P (glucosamine-6-phosphate [6]) [s⁻¹]	self-cleavage kobs at 10000 uM GlcN6P (glucosamine-6-phosphate [7]) [s⁻¹]
G40U U56C	1.13e-05 ± 5.2e-06	< 1e-05	–	–	–	–	–
G41A U45A	0.000317 ± 4.9e-05	9.19e-05 ± 1.9e-05	140 ± 59	0.000128 ± 3e-05	0.000296 ± 5.5e-05	0.000354 ± 8.1e-05	0.000299 ± 5.4e-05
G41A U45G	0.000391 ± 0.00013	2.84e-05 ± 1.3e-05	–	3e-05 ± 1.3e-05	0.000144 ± 2.4e-05	0.000565 ± 0.0001	0.000304 ± 5.2e-05
G44U U56A	0.000132 ± 9e-06	< 1e-05	2840 ± 550	–	–	6.59e-05 ± 1e-05	0.000102 ± 9.4e-06
G43C A53G C68U	0.00152 ± 0.00074	5.01e-05 ± 1.4e-05	–	0.000102 ± 2.7e-05	0.000435 ± 0.00011	0.000879 ± 0.00022	–
G41U C70U	0.0009 ± 0.00017	0.000457 ± 3.9e-05	–	0.000709 ± 0.0001	0.000714 ± 0.00011	0.00131 ± 0.00021	–
G41U C70A	0.0306 ± 0.013	0.00288 ± 0.00022	–	0.00721 ± 0.0009	0.0189 ± 0.0026	0.0568 ± 0.016	–
G41C C70U	0.000551 ± 0.00016	4.81e-05 ± 7.7e-06	–	9.61e-05 ± 2.4e-05	0.000173 ± 2.2e-05	0.000498 ± 6.2e-05	0.000516 ± 5.8e-05
G40A U54C	0.00522 ± 0.00053	0.000248 ± 5.6e-05	908 ± 140	0.000724 ± 0.00016	0.00211 ± 0.0003	0.00449 ± 0.0013	0.00467 ± 0.0012
G44C U55G	5.43e-05 ± 1.8e-05	–	–	–	–	5.66e-05 ± 2.2e-05	4.43e-05 ± 2.1e-05
G41C G66A	0.00127 ± 0.00038	–	4000 ± 1900	6.76e-05 ± 2.3e-05	0.00013 ± 3.9e-05	0.000621 ± 0.00011	0.000851 ± 0.00016
U45A A64C	0.000366 ± 4.6e-05	–	2520 ± 570	–	7.26e-05 ± 1.9e-05	0.000193 ± 3.8e-05	0.000277 ± 7.6e-05
G41U A48U	5.64e-05 ± 5.9e-06	–	2530 ± 840	–	–	–	4.45e-05 ± 1.4e-05
G41C C67U C70A	5.68e-05 ± 1.2e-05	–	9730 ± 3700	–	–	–	2.88e-05 ± 1.3e-05
A42G A64U	0.000207 ± 1.6e-05	–	2880 ± 600	–	–	0.000104 ± 2.3e-05	0.000158 ± 2.2e-05
G41U U45C	0.000379 ± 2.8e-05	–	1140 ± 210	4.06e-05 ± 1.5e-05	0.000157 ± 4e-05	0.000273 ± 5.6e-05	0.000331 ± 4.7e-05
G41A C70G	0.000368 ± 0.00014	4.43e-05 ± 8e-06	–	6.45e-05 ± 1.1e-05	0.000156 ± 1.6e-05	0.000332 ± 4e-05	–
A42U U55G	0.000182 ± 1.6e-05	–	577 ± 150	5.02e-05 ± 1.6e-05	8.8e-05 ± 1.4e-05	0.000164 ± 2.3e-05	0.000167 ± 2.3e-05
G40U U55A	0.00366 ± 0.0016	0.00026 ± 5.9e-05	–	0.000217 ± 5.8e-05	0.000764 ± 0.00022	0.00204 ± 0.00041	0.00304 ± 0.00059
G40A U56G	0.0035 ± 0.00093	6e-05 ± 1.3e-05	2840 ± 950	0.000189 ± 3e-05	0.000577 ± 7.7e-05	0.00224 ± 0.00044	0.00256 ± 0.00054
A42G C70G	0.000261 ± 5.1e-05	4.1e-05 ± 7.7e-06	261 ± 120	8.07e-05 ± 1.4e-05	0.000216 ± 2.7e-05	0.000414 ± 6.1e-05	0.000223 ± 2.5e-05
A42G C70A	0.000182 ± 4.2e-05	4.72e-05 ± 8.8e-06	–	6.35e-05 ± 1.1e-05	0.000154 ± 1.6e-05	0.000325 ± 3.7e-05	0.000155 ± 1.5e-05
G43A	9.3e-05 ± 6.9e-06	–	1560 ± 420	–	2.21e-05 ± 1.7e-06	6.37e-05 ± 1.8e-06	7.88e-05 ± 1.4e-06
G43U	4.89e-05 ± 4.3e-06	< 1e-05	986 ± 410	–	1.42e-05 ± 2e-06	3.98e-05 ± 1.6e-06	4.31e-05 ± 1.2e-06
G43U U65G	4.38e-05 ± 9.2e-07	< 1e-05	2380 ± 190	–	–	–	3.53e-05 ± 1.1e-05
G43U A53G	4.73e-05 ± 1.7e-06	< 1e-05	793 ± 120	–	–	3.6e-05 ± 1.5e-05	–
G43U A53U	2.65e-05 ± 2.2e-06	–	2760 ± 880	< 1e-05	–	–	–
G43U A53C	2.22e-05 ± 5.7e-07	–	7310 ± 400	–	–	–	–
A42U U45G	0.00034 ± 6.6e-05	–	1880 ± 720	4.68e-05 ± 1.4e-05	7.31e-05 ± 1.5e-05	0.000225 ± 3.8e-05	0.000278 ± 4.1e-05
A42U U45A	0.000149 ± 2.4e-05	–	1500 ± 680	–	3.93e-05 ± 1e-05	0.000134 ± 2.6e-05	0.000123 ± 1.6e-05
